# ± gives the standard deviation.
# Assay: protein stability index of a GFP-peptide fusion (GPS, HEK-293T) (PSI 1-6); higher = more stable
# [1] = treatment: DMSO, c terminus: a fixed tail appended
# [2] = treatment: MLN4924 1 uM, 8 h, c terminus: a fixed tail appended
# 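Further: 24-mer peptide tiles fused after GFP, lentivirally expressed, FACS-sorted into six equal bins by GFP/DsRed ratio, decoded by Illumina sequencing, PSI is the read-weighted mean bin number.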
Sequence,protein stability index [1],protein stability index [2],"protein stability index (treatment: DMSO, c terminus: native)","protein stability index (treatment: MLN4924 1 uM, 8 h, c terminus: native)"
QSPVSPQPPAITQVHRQGERRREL [SMTNL2],5.26 ± 0.14,5.12 ± 0.42,–,–
IMAFFLCLGLALGAVFSFLFRAIV [SLC29A1],1.94 ± 0.14,2.19 ± 0.21,–,–
VLCEAAFPKKLAFAYLEDLHSEFD [SEC22B],2.14 ± 0.28,2.31 ± 0.12,–,–
IHTGKKPHVCSLCGKAFYKKYRLT [ZNF649],2.67 ± 0.42,2.92 ± 0.62,–,–
VQAIFSGDPEEIRMLIHKTEDVNT [ANKRD44],3.76 ± 0.11,3.58 ± 0.11,–,–
EVPDSYTGPRLSFPLLPDHATALV [PPEF2],3.23 ± 0.27,3.42 ± 0.28,–,–
RALEEANTELEVKIRDWYQRQAPG [KRT17],3.37 ± 0.16,3.58 ± 0.4,–,–
VAVDYCASENHGCEHECVNADGSY [MATN2],5.08 ± 0.13,5.07 ± 0.054,–,–
VLADLHSAEQLKAQAIDFINRCSV [SPOPL],2.15 ± 0.14,2.29 ± 0.39,–,–
QCSQRMLSFSDALLSIIATVMILP [TMEM175],3.25 ± 0.4,3.33 ± 0.3,–,–
VSYRGAWWYRNCHYANLNGLYGST [TNXB],2.49 ± 0.46,2.26 ± 0.86,–,–
LALLNLACMMTITFLPYTFSLMVT [TMEM175],3.27 ± 0.32,3.38 ± 0.27,–,–
ERYQKIGDTKRATPIEVLCENFPE [CSNK1G3],4.59 ± 0.11,4.44 ± 0.28,–,–
VKIESVKLDFKEKAQAKVGSLDNA [MAP2],3.5 ± 0.24,3.52 ± 0.24,–,–
YSAEQFCVSRNSHLTSVTSESEQE [CD207],5.23 ± 0.21,5.13 ± 0.32,–,–
SLHDGSDGLDGISVGSYLDTLADD [LURAP1L],5 ± 0.17,4.93 ± 0.25,–,–
LPCTSRCPRPCRESAFKLSTGTSR [SCNN1D],2.64 ± 0.99,2.9 ± 0.38,–,–
YGALSSNLQPPASLQTGNHSNGPT [NOL4L],4.39 ± 0.22,4.44 ± 0.18,–,–
PSLQPSRKLSPTEPKNYGSYSTQA [SCAMP3],4.4 ± 0.35,4.5 ± 0.22,–,–
GQLTGGYKPNPQIYVKLIEECTDL [OAS1],2.99 ± 0.21,3.06 ± 0.093,–,–
SERTDTAADGETTATEELEKTQDD [EPB41L3],5.63 ± 0.2,5.59 ± 0.21,–,–
IEIVHISTVQILTEGFPPGGGNAR [ZFYVE21],2.51 ± 0.67,2.72 ± 0.74,–,–
YWKLQIFFTNVIQALGEHLKLRQQ [CCNC],2.66 ± 0.84,2.46 ± 0.38,–,–

Sequence,protein stability index [1],protein stability index [2],"protein stability index (treatment: DMSO, c terminus: native)","protein stability index (treatment: MLN4924 1 uM, 8 h, c terminus: native)"
KISKQFVAPADVRRLLSYCKGRDH [ZSWIM9],2.49 ± 0.32,2.81 ± 0.27,–,–
LQHTQELFPQWHLPIKIAAIIASL [STEAP1],2.16 ± 0.35,2.1 ± 0.24,–,–
LSDNATAFSNRSKQLRRQMWWRGC [VAMP4],2.54 ± 0.048,2.67 ± 0.33,–,–
FVSAGAAAGVAAAFGAPIGGTLFS [CLCN6],2.8 ± 0.48,2.46 ± 0.21,–,–
MSRMINKYKRRRFQKTKNLLTGET [CLPTM1],3.05 ± 0.32,3.26 ± 0.35,–,–
EQVAQLKQKVMTHVSNGCQLLLGV [JUNB],2.33 ± 0.27,2.12 ± 0.13,–,–
GLQAPPPDDVDYATNPHVKPPYSY [FOXJ1],4.42 ± 0.29,4.46 ± 0.19,–,–
KHYRFTHAEIIAWIRICRPGSIIG [CDC14A],2.55 ± 0.15,2.83 ± 0.67,–,–
YAELGQCSVFPATDAPEQFISQVT [PLK2],2.67 ± 0.16,3.04 ± 0.41,–,–
QLAAVHLSKSRTDYQPTQAGRLMR [RNF180],3.5 ± 0.18,3.52 ± 0.26,–,–
LWNGDKYAATTTPFTPLHIKVKPK [TRIM39],2.99 ± 0.27,3.28 ± 0.38,–,–
APPAKLACPVCSKMVPRYDLNRHL [FAN1],2.39 ± 0.21,2.95 ± 0.55,–,–
PVPPSEGKSRLSPAGEMKPMPLSE [BCL2L13],5.13 ± 0.22,5.08 ± 0.073,–,–
QLLCPWAPLSGPQALMLPPGSFWG [VENTX],2.41 ± 0.62,1.73 ± 0.35,–,–
TRRSSYEDSSLPSINALLQAEVLS [HNF4A],3.13 ± 0.22,3.15 ± 0.31,–,–
VCVIAIGVVQALIVGYAFHFPHLL [TMEM175],3.11 ± 0.62,3.09 ± 0.4,–,–
TVLLVLEDEDPEEMPKSSDFLIHP [PCDHGC5],2.75 ± 0.15,2.91 ± 0.21,–,–
QQCMLEILDTAGTEQFTAMRDLYM [RAP1B],2.53 ± 0.25,2.6 ± 0.2,–,–
VMRTKSSEKAANDDHSVRVAREDV [CPXM2],5.08 ± 0.54,5.16 ± 0.35,–,–
WKFPVPVLKTSRSTPLSPAYISLV [KLHL13],2.48 ± 0.42,2.26 ± 0.1,–,–
QFRLKEAFDYIKQRRSMVSPNFGF [DUSP5],2.19 ± 0.31,2.22 ± 0.17,–,–
IGGFTALHYAAMHGRARIARLMLE [ASB7],2.15 ± 0.23,2.31 ± 0.22,–,–
MQAEAEAASVRMRGEAEAFAIGAR [FLOT1],4.62 ± 0.31,4.75 ± 0.31,–,–

Sequence,protein stability index [1],protein stability index [2],"protein stability index (treatment: DMSO, c terminus: native)","protein stability index (treatment: MLN4924 1 uM, 8 h, c terminus: native)"
LSEYVSRMKETQKSIYYITGESKE [HSP90AB1],3.69 ± 0.24,3.67 ± 0.2,–,–
RVVHWYFKLLDKNSSGDIGKKEIK [SMOC2],2.46 ± 0.97,2.41 ± 0.4,–,–
PVLHPSEERAAPVLSCEAATQTER [FAM189A2],5.47 ± 0.27,5.44 ± 0.13,–,–
PAGEMKPMPLSEGKSILLFGGAAA [BCL2L13],3.53 ± 0.15,3.75 ± 0.27,–,–
RRFGAVACGVAMELYVFGGVRSRE [GAN],3.04 ± 0.79,2.26 ± 0.15,–,–
GEEGAPGKWQQQGDLQDTKENREE [CHGB],5.57 ± 0.31,5.52 ± 0.28,–,–
QQYAAQQYPGNYEQQQILIRQLQE [ACBD3],4.07 ± 0.19,4.06 ± 0.22,–,–
TPINQNVSLHQASLGGCSQDFLLF [NFE2L1],1.99 ± 0.55,2.6 ± 0.58,–,–
LVVADDKMAAFHGAGLKRYLLTVM [ADAMTS4],2.72 ± 0.63,2.35 ± 0.61,–,–
QKVVVTTPLHRDKTPLHQKHAAFV [MYBL2],3 ± 0.2,3.14 ± 0.32,–,–
TTLLKCYLHTNVALVAPLLRLENN [VPS39],2.68 ± 0.54,2.77 ± 0.57,–,–
ADLSQKSPELQEEFGYNAETQKLL [ARFIP2],4.95 ± 0.37,5.14 ± 0.17,–,–
LRHSFQKQQREKTRWLNSGRGDEA [ADD1],3.63 ± 0.5,3.92 ± 0.35,–,–
KDLQKEQKTLQVKCQHYKKKRTEQ [CEP70],4.92 ± 0.31,4.87 ± 0.032,–,–
SRHCPQLPPPCAALWCSGHLNGHA [ADAMTS4],2.48 ± 0.3,2.48 ± 0.21,–,–
ADTNSDRLFTVNDVKVGGSKYGII [DCAF4],3.01 ± 0.21,3.02 ± 0.28,–,–
LKGGLQEVAEQLELERIGPQHQAG [CNOT7],4.67 ± 0.14,4.94 ± 0.22,–,–
HLTRGRKMAHVIAACLYLVCRTEG [BRF1],2.53 ± 0.99,2.6 ± 0.48,–,–
LTPKSTPVKTLPFSPSQFLNFWNK [MYBL2],2.24 ± 0.26,2.4 ± 0.18,–,–
HSQNLAKQQRNEVSFVIHNLPIIA [SEPHS2],2.14 ± 0.089,2.25 ± 0.22,–,–
SPPVDLFATASAAVPVSTSKPSSD [SNAP91],5.31 ± 0.12,5.33 ± 0.17,–,–
MFRNHLCLVFELLSYNLYDLLRNT [DYRK1B],2.54 ± 0.23,2.85 ± 0.72,–,–
ALVAPLLRLENNHCHIEESEHVLK [VPS39],3.26 ± 0.11,3.32 ± 0.2,–,–

Sequence,protein stability index [1],protein stability index [2],"protein stability index (treatment: DMSO, c terminus: native)","protein stability index (treatment: MLN4924 1 uM, 8 h, c terminus: native)"
YGSGDTPGGPCDSTLGGDIRESDP [TBX6],5.25 ± 0.31,5.27 ± 0.61,–,–
APSLSGKGNPEEEDVDTSQVLYEW [CTNNB1],5.14 ± 0.28,5.15 ± 0.18,–,–
IICYSITDRRSFHEVREFKQLIYR [RIT1],2.41 ± 0.25,2.53 ± 0.46,–,–
EGTLGYAIGGTYLGPAFRGLKGRT [SPSB2],3.14 ± 0.1,3.06 ± 0.32,–,–
SISDVKFSHSGRYIMTRDYLTVKV [PPP2R2B],2.37 ± 0.47,2.52 ± 0.57,–,–
KQPRKKRGRYRQYNSEILEEAISV [LCOR],3.92 ± 0.16,3.98 ± 0.13,–,–
SDLLDEKEIAKNLIQPINHTTLQC [FEM1C],3.83 ± 0.25,4.03 ± 0.39,–,–
LCCEWLRPEKHTKEQILEFLVLEQ [ZNF232],2.23 ± 0.31,2.24 ± 0.27,–,–
DPQSGELPSERWNPTQNVRTILLS [CDC34],3.31 ± 0.35,3.62 ± 0.43,–,–
LWHLAITDRSFNIVDIKPANMEDL [PPP2R2C],2.36 ± 0.23,2.41 ± 0.28,–,–
YDFDTQYAFVGDYSGQITLLKLEQ [WDFY1],2.19 ± 0.11,2.33 ± 0.27,–,–
WAFSCGTWLPSRAEWLLAVRSIQP [AASDHPPT],2.65 ± 0.65,2.6 ± 0.64,–,–
PECTRCGHGIVGTIVKARDKLYHP [PDLIM4],2.35 ± 0.13,2.56 ± 0.21,–,–
LAQLLDTLLAIGTKLPENQAIQMR [INTS4],3.12 ± 0.73,2.76 ± 0.5,–,–
HGSPQLGEGMFQHQTSVAHQPVVR [TBX5],4.19 ± 0.28,4.13 ± 0.17,–,–
LAPVPTHSTVSELSRSPVATATSC [DUSP5],4.24 ± 0.3,4.17 ± 0.15,–,–
KEEGLPEEEPSHVTGREGFPTDAP [ZNF8],5.45 ± 0.23,5.57 ± 0.3,–,–
VLFNEKIREQIKKYRRHFLRFCHN [EIF5],2.82 ± 0.29,3 ± 0.65,–,–
GEWGGRHPSWPWTRCLRMRPPRS,–,–,2.81 ± 0.6,2.88 ± 0.36
NGFGLVEDSAQNCFALIPKAPKKD [EFHC1],4.75 ± 0.34,4.74 ± 0.13,–,–

# From the supplement of paper PMC10567573
